The assay deals with insulin receptor (mouse (endogenous in 3T3-L1)). The experiment in a line: co-IP; lysates of differentiated, serum-deprived 3T3-L1 adipocytes, untreated or treated with 100 nM Ang II for 60 min (for PKCβII also 10 µM DuP 753 for 30 min before Ang II); lysis in 50 mM Tris-HCl, 150 mM NaCl, 1% Nonidet P-40, 10% glycerol, 2 mM EDTA, pH 7.4; IR precipitated with anti-IR-β polyclonal antibody and protein A/G PLUS-Agarose; blots probed with anti-PKCα, -βI, -βII or -δ and quantified by densitometry.
insulin receptor (mouse (endogenous in 3T3-L1)), sequence (P15208 28-1372): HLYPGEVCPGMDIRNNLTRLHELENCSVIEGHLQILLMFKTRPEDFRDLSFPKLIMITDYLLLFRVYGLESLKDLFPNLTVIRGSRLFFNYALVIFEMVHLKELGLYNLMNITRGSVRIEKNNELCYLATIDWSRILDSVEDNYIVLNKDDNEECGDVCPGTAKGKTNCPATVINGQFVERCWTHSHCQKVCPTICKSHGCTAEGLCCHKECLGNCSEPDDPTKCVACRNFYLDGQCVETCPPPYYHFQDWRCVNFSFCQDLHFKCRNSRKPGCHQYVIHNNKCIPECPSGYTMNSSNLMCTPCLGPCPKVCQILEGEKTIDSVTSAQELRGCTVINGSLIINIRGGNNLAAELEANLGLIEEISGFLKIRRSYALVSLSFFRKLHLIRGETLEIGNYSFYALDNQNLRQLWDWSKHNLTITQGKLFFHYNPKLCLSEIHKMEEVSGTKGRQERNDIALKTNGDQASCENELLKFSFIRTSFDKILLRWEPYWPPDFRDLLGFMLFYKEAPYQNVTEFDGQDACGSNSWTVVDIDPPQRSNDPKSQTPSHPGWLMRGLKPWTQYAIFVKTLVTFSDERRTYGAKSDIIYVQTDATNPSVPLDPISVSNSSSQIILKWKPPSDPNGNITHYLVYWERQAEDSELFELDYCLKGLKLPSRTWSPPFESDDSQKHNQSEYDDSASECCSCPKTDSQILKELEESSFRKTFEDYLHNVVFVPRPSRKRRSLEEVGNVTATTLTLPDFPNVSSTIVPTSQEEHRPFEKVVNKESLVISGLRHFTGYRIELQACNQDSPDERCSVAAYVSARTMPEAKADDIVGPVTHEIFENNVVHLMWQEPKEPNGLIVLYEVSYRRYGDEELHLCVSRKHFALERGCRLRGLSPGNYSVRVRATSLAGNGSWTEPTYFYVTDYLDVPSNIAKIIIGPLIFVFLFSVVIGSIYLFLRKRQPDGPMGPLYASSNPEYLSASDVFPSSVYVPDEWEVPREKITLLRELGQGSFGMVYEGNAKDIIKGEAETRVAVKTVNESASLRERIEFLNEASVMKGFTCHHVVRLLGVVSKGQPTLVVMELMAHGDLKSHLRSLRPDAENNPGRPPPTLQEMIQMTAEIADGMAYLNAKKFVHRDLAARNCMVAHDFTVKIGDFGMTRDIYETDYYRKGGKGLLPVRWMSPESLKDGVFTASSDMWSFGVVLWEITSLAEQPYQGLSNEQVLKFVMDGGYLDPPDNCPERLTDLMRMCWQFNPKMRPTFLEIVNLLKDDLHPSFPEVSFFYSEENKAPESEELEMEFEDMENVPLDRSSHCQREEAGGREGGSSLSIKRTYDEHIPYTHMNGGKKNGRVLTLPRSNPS

In the case of “PKCδ (from UniProt P28867 1-674) (enzyme)”, the fold increase of the association with Ang II over control cells worked out at 1.5 fold. The figure for “PKCβI (from UniProt P68404 1-671) (enzyme)” is 1.2 fold; for “PKCβII (from UniProt P68404-2 1-673) (enzyme)” it is 4 fold; for “PKCα (from UniProt P20444 1-672) (enzyme)” it is 2 fold.

For the origin of these results see PMC9181642.
